Measured values taken from patent US20180230200A1 (CITY OF HOPE, published 2018).

T1: UL128 expressed from MVA in BHK-21 cells (human cytomegalovirus, UniProt P16837 28-171)
T1 construct: whole, on cells
T1 sequence: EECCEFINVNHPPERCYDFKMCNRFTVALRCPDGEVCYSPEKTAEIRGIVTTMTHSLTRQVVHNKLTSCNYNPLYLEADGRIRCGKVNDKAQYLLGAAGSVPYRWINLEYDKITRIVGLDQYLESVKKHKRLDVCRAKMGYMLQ

B1: 1B2 (antibody, V domains shown)
VH: EVQLVESGGVLVKPGGSLKLSCAASGFTFSDYYMYWVRQTPEKRLEWVATISDDGNYTNYPDSVKGRFTISRDNAKNNLYLQMSSLKSEDTAMYYCARGWLLPVFAYWGQGTLVTVSA
VL: DIVLTQSPATLSVTPGDSVSLSCRASQSIGNNLHWYQQKSHESPRLLIKYTSQSISGIPSRFSGSGSGTDFTLNINSVETEDFGVYFCQQSNRWPWTFGGGTKLEIK
notes: also called NAb 1B2
B2: 4A3 (antibody, V domains shown)
VH: QVQLQQPGPELVRPGASVKLSCKASGYTFTIYWMNWVKQRPGQGLEWIGMIDPSDSETHYNQMFKDKATLTVDKSSSTAYMQLSSLTSEDSAVYYCASSGTGAYWGQGTLLTVSA
VL: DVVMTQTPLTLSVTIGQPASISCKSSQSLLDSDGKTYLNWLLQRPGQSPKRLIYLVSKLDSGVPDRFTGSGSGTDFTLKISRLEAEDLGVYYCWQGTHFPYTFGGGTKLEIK
notes: also called NAb 4A3
B3: 12E2 (antibody, V domains shown)
VH: EVKLVESGGGLVQPGGSLKLSCATSGFTFSDYYMFWVRQTPEKKLEWVAYISNGGGSTYYPDTVKGRFTISRDNDKNTLYLQMSRLKSDDTALYYCVRPKRDFQYLYAMDYWGQGTSVTVSS
VL: DIVLTQSPASLAVSLGQRATISCRASKSVSTSGYSYMHWYQQKPGQSPKLLIYLASNLESGVPARFSGSGSGTDFTLNIHPVEDEDAATYYCQHSRELPWTFGGGTKLEIK
notes: also called NAb 12E2

Assays:
[1] = target: T2, gH/gL/UL128/UL130/UL131A pentamer complex expressed from MVA-PC in BHK-21 cells (human cytomegalovirus, UniProt P12824 24-743; P16832 31-278; P16837 28-171; P16772 1-214; F5HET4 19-129); assay: FC competition, MVA-PC BHK-21; unlabelled row Ab; competitor: biotinylated 13B5
T2 construct: whole, on cells

[2] = target: T2, gH/gL/UL128/UL130/UL131A pentamer …; assay: FC competition, MVA-PC BHK-21; unlabelled row Ab; competitor: biotinylated 12E2
[3] = target: T2, gH/gL/UL128/UL130/UL131A pentamer …; assay: FC competition, MVA-PC BHK-21; unlabelled row Ab; competitor: biotinylated 18F10
[4] = target: T2, gH/gL/UL128/UL130/UL131A pentamer …; assay: FC competition, MVA-PC BHK-21; unlabelled row Ab; competitor: biotinylated 21F6
[5] = target: T3, gH/gL co-expressed from MVA in BHK-21 cells (human cytomegalovirus, UniProt P12824 24-743; P16832 31-278); assay: intracellular FC, MVA-infected BHK-21
T3 construct: whole, on cells

[6] = target: T4, gH/gL/UL128/UL131A co-expressed from MVA in BHK-21 cells (human cytomegalovirus, UniProt P12824 24-743; P16832 31-278; P16837 28-171; F5HET4 19-129); assay: intracellular FC, MVA-infected BHK-21
T4 construct: whole, on cells

[7] = target: T5, UL131A expressed from MVA in BHK-21 cells (human cytomegalovirus, UniProt F5HET4 19-129); assay: intracellular FC, MVA-infected BHK-21
T5 construct: whole, on cells

[8] = target: T6, gH/gL/UL128 co-expressed from MVA in BHK-21 cells (human cytomegalovirus, UniProt P12824 24-743; P16832 31-278; P16837 28-171); assay: intracellular FC, MVA-infected BHK-21
T6 construct: whole, on cells

[9] = target: T7, UL128/UL130 co-expressed from MVA in BHK-21 cells (human cytomegalovirus, UniProt P16837 28-171; P16772 1-214); assay: intracellular FC, MVA-infected BHK-21
T7 construct: whole, on cells

[10] = target: T8, UL130 expressed from MVA in BHK-21 cells (human cytomegalovirus, UniProt P16772 1-214); assay: intracellular FC, MVA-infected BHK-21
T8 construct: whole, on cells

[11] = target: T9, gH/gL/UL128/UL130 co-expressed from MVA in BHK-21 cells (human cytomegalovirus, UniProt P12824 24-743; P16832 31-278; P16837 28-171; P16772 1-214); assay: intracellular FC, MVA-infected BHK-21
T9 construct: whole, on cells

[12] = target: T10, gH/gL/UL131A co-expressed from MVA in BHK-21 cells (human cytomegalovirus, UniProt P12824 24-743; P16832 31-278; F5HET4 19-129); assay: intracellular FC, MVA-infected BHK-21
T10 construct: whole, on cells

[13] = target: T1, UL128 expressed from MVA in BHK-21 cells; assay: intracellular FC, MVA-infected BHK-21
[14] = target: T11, gH expressed from MVA in BHK-21 cells (human cytomegalovirus, UniProt P12824 24-743); assay: intracellular FC, MVA-infected BHK-21
T11 construct: whole, on cells

[15] = target: T12, UL128/UL131A co-expressed from MVA in BHK-21 cells (human cytomegalovirus, UniProt P16837 28-171; F5HET4 19-129); assay: intracellular FC, MVA-infected BHK-21
T12 construct: whole, on cells

[16] = target: T13, UL130/UL131A co-expressed from MVA in BHK-21 cells (human cytomegalovirus, UniProt P16772 1-214; F5HET4 19-129); assay: intracellular FC, MVA-infected BHK-21
T13 construct: whole, on cells

[17] = target: T14, gH/gL/UL130 co-expressed from MVA in BHK-21 cells (human cytomegalovirus, UniProt P12824 24-743; P16832 31-278; P16772 1-214); assay: intracellular FC, MVA-infected BHK-21
T14 construct: whole, on cells

[18] = target: T15, gH/gL/UL130/UL131A co-expressed from MVA in BHK-21 cells (human cytomegalovirus, UniProt P12824 24-743; P16832 31-278; P16772 1-214; F5HET4 19-129); assay: intracellular FC, MVA-infected BHK-21
T15 construct: whole, on cells

[19] = target: T2, gH/gL/UL128/UL130/UL131A pentamer …; assay: FC competition, MVA-PC BHK-21; unlabelled row Ab; competitor: biotinylated 1B2
[20] = target: T2, gH/gL/UL128/UL130/UL131A pentamer …; assay: FC competition, MVA-PC BHK-21; unlabelled row Ab; competitor: biotinylated 54E11
[21] = target: gH/gL/UL128/UL130/UL131A pentamer complex (PC) of HCMV strain TR virus (human cytomegalovirus strain TR); assay: cell-based or functional assay
[22] = target: gH/gL/UL128/UL130/UL131A pentamer complex (PC) of HCMV strain TB40/E virus (human cytomegalovirus strain TB40/E); assay: cell-based or functional assay
[23] = target: T2, gH/gL/UL128/UL130/UL131A pentamer …; assay: FC, biotinylated NAb titrated on MVA-PC-infected BHK-21 (cell surface PC)

Binder	binding result [5]	binding result [6]	binding result [7]	binding result [8]	binding result [9]	binding result [10]	binding result [11]	binding result [12]	binding result [13]	binding result [14]	binding result [15]	binding result [16]	binding result [17]	binding result [18]	IC50, neutralization of TR infection of ARPE-19 [21] [µg/mL]	IC50, neutralization of TR infection of HUVEC [21] [µg/mL]	IC50, neutralization of TR infection of MRC-5 [21] [µg/mL]	IC50, neutralization of TB40/E infection of ARPE-19 [22] [µg/mL]	IC50, neutralization of TB40/E infection of HUVEC [22] [µg/mL]	IC50, neutralization of TB40/E infection of MRC-5 [22] [µg/mL]	also measured
B1	no binding	no binding	no binding	no binding	no binding	no binding	no binding	no binding	no binding	no binding	no binding	no binding	no binding	no binding	0.0003	0.0007	> 25	0.0006	0.0005	> 25	Binding Inhibition (%) [1]: 0%; Binding Inhibition (%) [2]: 100%; Binding Inhibition (%) [3]: 0%; Binding Inhibition (%) [4]: 0%; Binding Inhibition (%) [19]: 100%; Binding Inhibition (%) [20]: 0%; IC50, inhibition of TR cell-to-cell spread in ARPE-19 [21]: 1.4 µg/mL; IC50, inhibition of TB40/E cell-to-cell spread in ARPE-19 [22]: 1 µg/mL; IC50, neutralization of TB40/E infection of CTB [22]: 0.0126 µg/mL; EC50 [23]: 0.32 nM
B2	no binding	no binding	no binding	no binding	no binding	no binding	no binding	no binding	no binding	no binding	no binding	no binding	no binding	no binding	0.0446	0.0102	> 25	0.0802	0.0464	> 25	–
B3	no binding	no binding	no binding	no binding	no binding	no binding	no binding	no binding	no binding	no binding	no binding	no binding	no binding	no binding	0.0031	0.0042	> 25	0.0037	0.006	> 25	Binding Inhibition (%) [1]: 0%; Binding Inhibition (%) [2]: 100%; Binding Inhibition (%) [3]: 0%; Binding Inhibition (%) [4]: 0%; Binding Inhibition (%) [19]: 100%; Binding Inhibition (%) [20]: 0%; IC50, inhibition of TR cell-to-cell spread in ARPE-19 [21]: 17 µg/mL; IC50, inhibition of TB40/E cell-to-cell spread in ARPE-19 [22]: 15 µg/mL; IC50, neutralization of TB40/E infection of CTB [22]: 0.0721 µg/mL; EC50 [23]: 1.1 nM
